Sequences and labels used below:
B1: OR4K15 (parent)
chain: GUUAACGGUCAUAGGCCAUGGAAACUAGGAGCACCAUUUCGCUGCCAGUGAAGAAAUGAACAAAGAAAAUCUGGGCCAGGCAGGCAUCAAAAGAAAUAGUCUUGCGCUCAACCAGAAAGUCUGUAAUCAUUUUAAGGGUA

The variants in the data set derive from B1. As to the kind of experiment: self-cleavage, relative activity (ratio to wild type); higher = more cleavage; in vitro, sequencing; the parent is a self-cleaving ribozyme.
For GUUAACGGUCGUAGGCCAUGGAAACUAGGAGCACCAUUUCGCUGCCAGUGAAGAAAUGAACAAAGAAAAUCUGGGCCGGGCAGGCAUCAAAAGAAAUAGUCUUGCGCUCAACCAGAAAGUCUGUAAUCAUUUUAAGGGUA [A11G A78G], the self-cleavage worked out at 0.54. As for GUUAACGGUCGUAGGCCAUGGAAACUAGGAGCACCAUUUCGCUGCCAGUGAAGAAAUGAACAAAGAAAAUCUGGGCCUGGCAGGCAUCAAAAGAAAUAGUCUUGCGCUCAACCAGAAAGUCUGUAAUCAUUUUAAGGGUA [A11G A78U], the figure is 0.26. As for GUUAACGGUCGUAGGCCAUGGAAACUAGGAGCACCAUUUCGCUGCCGGUGAAGAAAUGAACAAAGAAAAUCUGGGCCAGGCAGGCAUCAAAAGAAAUAGUCUUGCGCUCAACCAGAAAGUCUGUAAUCAUUUUAAGGGUA [A11G A47G], the figure is 1.27; as for GUUAACGGUCGUAGGCCAUGGAAACUAGGAGCACCAUUUCGCUGCCAGUGGAGAAAUGAACAAAGAAAAUCUGGGCCAGGCAGGCAUCAAAAGAAAUAGUCUUGCGCUCAACCAGAAAGUCUGUAAUCAUUUUAAGGGUA [A11G A51G], 1.15. As for GUUAACGGUCGUAGGCCAUGGAAACUAGGAGCACCAUUUCGCUGCCAGUGAAGAAAUGAACAAAGAAAAUCUGGGCCAGGCUGGCAUCAAAAGAAAUAGUCUUGCGCUCAACCAGAAAGUCUGUAAUCAUUUUAAGGGUA [A11G A82U], the figure is 0.2; as for GUUAACGGUCGUAGGCCAUGGAAACUAGGAGCACCAUUUCGCUGCCAGUGAAGAAAUGAACAAAGUAAAUCUGGGCCAGGCAGGCAUCAAAAGAAAUAGUCUUGCGCUCAACCAGAAAGUCUGUAAUCAUUUUAAGGGUA [A11G A66U], 1.45; as for GUUAACGGUCGUAGGCCAUGGAAACUAGGAGCACCAUUUCGCUGCCAGUGAAGAAAUGAACAAAGGAAAUCUGGGCCAGGCAGGCAUCAAAAGAAAUAGUCUUGCGCUCAACCAGAAAGUCUGUAAUCAUUUUAAGGGUA [A11G A66G], 0.88. Consider GUUAACGGUCGUAGGCCAUGGAAACUCGGAGCACCAUUUCGCUGCCAGUGAAGAAAUGAACAAAGAAAAUCUGGGCCAGGCAGGCAUCAAAAGAAAUAGUCUUGCGCUCAACCAGAAAGUCUGUAAUCAUUUUAAGGGUA [A11G A27C], for which the self-cleavage came out at 0.61. Next, GUUAACGGUCGUAGGCCAUGGAAACUAGGAGCACCAUUUCGCUGCCAGUGAAGAAAUGAUCAAAGAAAAUCUGGGCCAGGCAGGCAUCAAAAGAAAUAGUCUUGCGCUCAACCAGAAAGUCUGUAAUCAUUUUAAGGGUA [A11G A60U]: 1.02; GUUAACGGUCGUAGGCCAUGGAAACUAGGAGCACCAUUUCGCUGCCAGUGAAGAAAUGAACAAAGAAAAUCUGGGCCAGGCAGGCAUCAAAAGAAAUAGUCUUGCGCUCAACCAGAAAGUCUGUAAUCAUUUUAAGGGUA [A11G]: 0.77; GUUAACGGUCGUAGGCCAUGGAAACUAGGAGCACCAUUUCGCUGCCAGUGACGAAAUGAACAAAGAAAAUCUGGGCCAGGCAGGCAUCAAAAGAAAUAGUCUUGCGCUCAACCAGAAAGUCUGUAAUCAUUUUAAGGGUA [A11G A52C]: 0.82. As to GUUAACGGUCGUAGGCCAUGGGAACUAGGAGCACCAUUUCGCUGCCAGUGAAGAAAUGAACAAAGAAAAUCUGGGCCAGGCAGGCAUCAAAAGAAAUAGUCUUGCGCUCAACCAGAAAGUCUGUAAUCAUUUUAAGGGUA [A11G A22G], the self-cleavage amounted to 1.04. Next, GUUAACGGUCGUAGGCCAUGGAAACUAGGAGCACCAUUUCGCUGCCAGUGAAGGAAUGAACAAAGAAAAUCUGGGCCAGGCAGGCAUCAAAAGAAAUAGUCUUGCGCUCAACCAGAAAGUCUGUAAUCAUUUUAAGGGUA [A11G A54G]: 1.01; GUUAACGGUCGUAGGCCAUGGAAACUAGGAGCACCAUUUCGCUGCCAGUGAAGAAAUGGACAAAGAAAAUCUGGGCCAGGCAGGCAUCAAAAGAAAUAGUCUUGCGCUCAACCAGAAAGUCUGUAAUCAUUUUAAGGGUA [A11G A59G]: 0.88; GUUAACGGUCGUAGGCCAUGGAAACUAGGAGCACCAUUUCGCUGCCAGUGAAGAAAUGUACAAAGAAAAUCUGGGCCAGGCAGGCAUCAAAAGAAAUAGUCUUGCGCUCAACCAGAAAGUCUGUAAUCAUUUUAAGGGUA [A11G A59U]: 0.98.

As for GUUAACGGUCGUAGGCCAUGGAAACUAGGAGCUCCAUUUCGCUGCCAGUGAAGAAAUGAACAAAGAAAAUCUGGGCCAGGCAGGCAUCAAAAGAAAUAGUCUUGCGCUCAACCAGAAAGUCUGUAAUCAUUUUAAGGGUA [A11G A33U], the self-cleavage is 0.86.

Regarding GUUAACGGUCGUAGGCCAUGGAAACUAGGAGCACCAUUUCGCUGCCAGUGAAGAAAUGAACAAAGAAUAUCUGGGCCAGGCAGGCAUCAAAAGAAAUAGUCUUGCGCUCAACCAGAAAGUCUGUAAUCAUUUUAAGGGUA [A11G A68U], the self-cleavage stood at 1.23. GUUAACGGUCGUAGGCCAUGGAAACUAGGAGCACCAUUUCGCUGCCAGUGAAGAAAUGAACAAAGAACAUCUGGGCCAGGCAGGCAUCAAAAGAAAUAGUCUUGCGCUCAACCAGAAAGUCUGUAAUCAUUUUAAGGGUA [A11G A68C]: the self-cleavage was determined as 0.39. Next, GUUAACGGUCGUAGGCCAUGGAAACUAGGAGCACCAUUUCGCUGCCAGUGAAGAAAUGAACAAAGAAGAUCUGGGCCAGGCAGGCAUCAAAAGAAAUAGUCUUGCGCUCAACCAGAAAGUCUGUAAUCAUUUUAAGGGUA [A11G A68G]: 1.13; GUUAACGGUCGUAGGCCAUGGAAACUAGGAGCACCGUUUCGCUGCCAGUGAAGAAAUGAACAAAGAAAAUCUGGGCCAGGCAGGCAUCAAAAGAAAUAGUCUUGCGCUCAACCAGAAAGUCUGUAAUCAUUUUAAGGGUA [A11G A36G]: 0.8; GUUAACGGUCGUAGGCCAUGGAAACUAGGGGCACCAUUUCGCUGCCAGUGAAGAAAUGAACAAAGAAAAUCUGGGCCAGGCAGGCAUCAAAAGAAAUAGUCUUGCGCUCAACCAGAAAGUCUGUAAUCAUUUUAAGGGUA [A11G A30G]: 1.08.

The values above are taken from the RNAGym collection of RNA variant scans (doi:10.7554/elife.90254).
